Reference: PMC9054013, “FCHO controls AP2’s initiating role in endocytosis through a PtdIns(4,5)P2-dependent switch” (Science Advances, 2022)
“And” between values parts separate entries of the source, which are not always exact repeats. Equal entries are not always repeated.

B1: FCHO1 linker: FCHO1 interdomain linker wt (N123C), residues 316 to 444, GST fusion (protein)
chain: TCPEVDEEGFTVRPDVTQNSTAEPSRFSSSDSDFDDEEPRKFYVHIKPAPARAPACSPEAAAAQLRATAGSLILPPGPGGTMKRHSSRDAAGKPQRPRSAPRTSSCAERLQSEEQVSKNLFGPPLESAF
modifications: left off: GST, end not stated, kept
notes: FCHO1 interdomain linker wt (N123C), residues 316 to 444, GST fusion
B2: FCHO2 linker: FCHO2 interdomain linker wt, residues 314 to 444, GST fusion (protein)
chain: NIPDVDEEGYSIKPETNQNDTKENHFYSSSDSDSEDEEPKKYRIEIKPMHPNNSHHTMASLDELKVSIGNITLSPAISRHSPVQMNRNLSNEELTKSKPSAPPNEKGTSDLLAWDPLFGPSLDSSSSSSLT
modifications: left off: GST, end not stated, kept
notes: FCHO2 interdomain linker wt, residues 314 to 444, GST fusion

Columns and labels:
[1] = target: AP2 core; experiment: BLI of AP2 core binding to immobilized GST-FCHO linkers; conditions: BLI equilibrium analysis, GST-linker on anti-GST biosensors, 25°C, near-physiological conditions, AP2 core closed
Description: Real-time kinetic measurements of AP2 core binding to immobilized GST-FCHO1 linker and GST-FCHO2 linker at 25°C were conducted using an Octet RED96 (Pall FortéBio). AP2 concentrations varied by twofold dilution series (13.5 to 0.8 and 10.0 to 0.2 μM, respectively). Samples and buffers were dispensed into 96-well microtiter plates (Greiner) at a volume of 200 μl per well. Anti-GST biosensors (Pall FortéBio) were incubated in the specific assay buffer for at least 30 min before loading with the appropriate GST-FCHO linker for 5 min, followed by blocking with GST-ARRS control for 10 min. Negative controls were analyzed with biosensors uniquely loaded with the GST-ARRS control. Every binding experiment consisted of three steps: incubation for 10 min in the specific assay buffer, followed by 15 min of incubation with AP2 in the same buffer (association phase), and then by 10 min of incubation with the same buffer without AP2 to measure AP2 off rate (dissociation phase). […]
Data were processed with the Octet Data Acquisition 7.0 software, individually fitted using ForteBio Analysis software 7.0, and subsequently further analyzed with the PRISM software (GraphPad) to determine equilibrium dissociation constants (KD). The maximum binding capacity of each biosensor was scaled with respect to each other, according to the molecular weight of the AP2 analyzed.

[2] = system: AP2 core; experiment: Liposome spin-downs / GSH Sepharose pull-down of AP2 core with GST-FCHO2 linker; format: biochemical; conditions: for increase in steady-state efficiency of AP2 membrane recruitment: GST-FCHO2 vs GST-ARRS control, densitometry, 3 independent experiments
Description: GST-FCHO2 WT linker or a nonbinding control (GST-ARRS control) at a final concentration of 30 μM was incubated at 4°C for 30 min with AP2 core at a concentration of 2.5 μM, in 95% HKT buffer with lysozyme (0.2 mg/ml) as a “carrier,” AEBSF (25 μg/ml), and 5 mM DTT. Core buffer (contributed by the purified AP2) was restricted to 5% of the volume. The mixture was then centrifuged briefly to remove any insoluble material. Samples were removed and added to either an equal volume of liposomes [containing phosphatidylcholine (PC)/phosphatidylethanolamine (PE), PC/PE/PS/PtdIns(4,5)P2, or PC/PE/PS/ PtdIns(4,5)P2/TGN38] or an equal bed volume of GSH Sepharose beads prewashed into HKT buffer. Final concentrations were therefore 15 μM (GST-FCHO2/ARRS) and 1.25 μM AP2. The mixtures were incubated for 30 min at 21°C with continuous gentle inversion, then the liposomes were pelleted by centrifugation, supernatants were removed, and the pellets resuspended in an equal volume before the addition of SDS loading dye and analysis by SDS-PAGE. The GSH Sepharose beads were washed three times with 1 ml of HKT supplemented with lysozyme (0.2 mg/ml), AEBSF (25 μg/ml), and 5 mM DTT, then resuspended in the same buffer, and analyzed by SDS-PAGE. All experiments were done in triplicate.

Molecule	Kd [1]	ratio of FCHO2:AP2 on beads relative to PtdIns(4,5)P2-containing liposomes ([2]; GST-FCHO2 linker 15 μM, AP2 core 1.25 μM, three independent experiments)	increase in steady-state efficiency of AP2 membrane recruitment ([2]; PtdIns(4,5)P2-only liposomes)	increase in steady-state efficiency of AP2 membrane recruitment ([2]; liposomes containing both PtdIns(4,5)P2 and cargo)
B1	~10 µM and 8.5 µM			
B2	~10 µM and 9.8 µM	~ 20 fold	~ 13%	~ 22%
